From US20190233847

B1: Tobacco Etch Virus (TEV) protease (protein)
chain: GESLFKGPRDYNPISSTICHLTNESDGHTTSLYGIGFGPFIITNKHLFRRNNGTLLVQSLHGVFKVKNTTTLQQHLIDGRDMIIIRMPKDFPPFPQKLKFREPQREERICLVTTNFQTKSMSSMVSDTSCTFPSSDGIFWKHWIQTKDGQCGSPLVSTRDGFIVGIHSASNFTNTNNYFTSVPKNFMELLTNQEAQQWVSGWRLNADSVLWGGHKVFMSKPEEPFQPVKEATQLMNELVYSQ

Legend:
[1] = biological target: cpCas9-182 circular permutation: residues 183-1368, (GGS)n linker, then 1-182 (Streptococcus pyogenes) (UniProt Q99ZW2); assay: cell_activity; details: enrichment in RFP repression FACS screen, E. coli
[2] = biological target: cpCas9-271 circular permutation: residues 272-1368, (GGS)n linker, then 1-271 (Streptococcus pyogenes) (UniProt Q99ZW2); assay: cell_activity; details: enrichment in RFP repression FACS screen, E. coli
[3] = biological target: cpCas9-1283 circular permutation: residues 1284-1368, (GGS)n linker, then 1-1283 (Streptococcus pyogenes) (UniProt Q99ZW2); assay: cell_activity; details: enrichment in RFP repression FACS screen, E. coli
[4] = biological target: cpCas9-1250 circular permutation: residues 1251-1368, (GGS)n linker, then 1-1250 (Streptococcus pyogenes) (UniProt Q99ZW2); assay: cell_activity; details: enrichment in RFP repression FACS screen, E. coli
[5] = biological target: cpCas9-1017 circular permutation: residues 1018-1368, (GGS)n linker, then 1-1017 (Streptococcus pyogenes) (UniProt Q99ZW2); assay: cell_activity; details: enrichment in RFP repression FACS screen, E. coli
[6] = biological target: cpCas9-1042 circular permutation: residues 1043-1368, (GGS)n linker, then 1-1042 (Streptococcus pyogenes) (UniProt Q99ZW2); assay: cell_activity; details: enrichment in RFP repression FACS screen, E. coli
[7] = biological target: cpCas9-1011 circular permutation: residues 1012-1368, (GGS)n linker, then 1-1011 (Streptococcus pyogenes) (UniProt Q99ZW2); assay: cell_activity; details: enrichment in RFP repression FACS screen, E. coli
[8] = biological target: cpCas9-231 circular permutation: residues 232-1368, (GGS)n linker, then 1-231 (Streptococcus pyogenes) (UniProt Q99ZW2); assay: cell_activity; details: enrichment in RFP repression FACS screen, E. coli
[9] = biological target: cpCas9-200 circular permutation: residues 201-1368, (GGS)n linker, then 1-200 (Streptococcus pyogenes) (UniProt Q99ZW2); assay: cell_activity; details: enrichment in RFP repression FACS screen, E. coli
[10] = biological target: cpCas9-311 circular permutation: residues 312-1368, (GGS)n linker, then 1-311 (Streptococcus pyogenes) (UniProt Q99ZW2); assay: cell_activity; details: enrichment in RFP repression FACS screen, E. coli
[11] = biological target: subset of circular permuted dCas9 proteins (CPs) with a TEV linker (ENLYFQ\S) between the N & C termini

Molecule | binding signal (log2 fold change) [1] | binding signal (log2 fold change) [2] | binding signal (log2 fold change) [3] | binding signal (log2 fold change) [4] | binding signal (log2 fold change) [5] | binding signal (log2 fold change) [6] | binding signal (log2 fold change) [7] | binding signal (log2 fold change) [8] | binding signal (log2 fold change) [9] | binding signal (log2 fold change) [10] | western blot of linker cleavage [11]
RFP-targeting guide RNA ; RFP reporter target | 17.1 | 16.7 | 18 | 18.1 | 17 | 17.8 | 17.3 | 17.2 | 17.7 | 15.6 | –
B1 | – | – | – | – | – | – | – | – | – | – | the CPs were cleaved at the correct location when an active TEV protease was present in the cell
